# In the Human Domainome abundance scans (Beltran et al. 2025):
# ± gives the uncertainty stated by the source.
# Test: abundance fitness (aPCA) (normalised: wild type 0, dead -1); higher = more abundant; growth selection in yeast, the domain comes from the species named
# Details: Homo sapiens
row,Substance,abundance fitness
1,"DnaJ homolog subfamily B member 1 I48G, P25685",-0.615 ± 0.065
2,"DnaJ homolog subfamily B member 1 I48H, P25685",-0.561 ± 0.12
3,"DnaJ homolog subfamily B member 1 I48K, P25685",-0.329 ± 0.2
4,"DnaJ homolog subfamily B member 1 I48L, P25685",-0.089 ± 0.072
5,"DnaJ homolog subfamily B member 1 I48M, P25685",-0.111 ± 0.099
6,"DnaJ homolog subfamily B member 1 I48P, P25685",-0.561 ± 0.1
7,"DnaJ homolog subfamily B member 1 I48Q, P25685",-0.422 ± 0.12
8,"DnaJ homolog subfamily B member 1 I48R, P25685",-0.74 ± 0.075
9,"DnaJ homolog subfamily B member 1 I48S, P25685",-0.387 ± 0.074
10,"DnaJ homolog subfamily B member 1 I48V, P25685",-0.267 ± 0.089
11,"DnaJ homolog subfamily B member 1 I48W, P25685",-1 ± 0.11
12,"DnaJ homolog subfamily B member 1 I48Y, P25685",-0.386 ± 0.2
13,"DnaJ homolog subfamily B member 1 I63A, P25685",0.237 ± 0.097
14,"DnaJ homolog subfamily B member 1 I63C, P25685",-0.083 ± 0.1
15,"DnaJ homolog subfamily B member 1 I63D, P25685",-0.014 ± 0.21
16,"DnaJ homolog subfamily B member 1 I63E, P25685",0.092 ± 0.1
17,"DnaJ homolog subfamily B member 1 I63F, P25685",-0.212 ± 0.26
18,"DnaJ homolog subfamily B member 1 I63G, P25685",-0.003 ± 0.089
19,"DnaJ homolog subfamily B member 1 I63H, P25685",-0.311 ± 0.33
20,"DnaJ homolog subfamily B member 1 I63K, P25685",-0.019 ± 0.13
21,"DnaJ homolog subfamily B member 1 I63L, P25685",-0.097 ± 0.082
22,"DnaJ homolog subfamily B member 1 I63M, P25685",-0.087 ± 0.085
23,"DnaJ homolog subfamily B member 1 I63N, P25685",-0.012 ± 0.11
24,"DnaJ homolog subfamily B member 1 I63P, P25685",0.08 ± 0.11
25,"DnaJ homolog subfamily B member 1 I63Q, P25685",0.098 ± 0.074
26,"DnaJ homolog subfamily B member 1 I63R, P25685",0.044 ± 0.074

row,Substance,abundance fitness
1,"DnaJ homolog subfamily B member 1 I63S, P25685",0.108 ± 0.068
2,"DnaJ homolog subfamily B member 1 I63T, P25685",0.588 ± 0.081
3,"DnaJ homolog subfamily B member 1 I63V, P25685",0.016 ± 0.065
4,"DnaJ homolog subfamily B member 1 I63W, P25685",-0.277 ± 0.12
5,"DnaJ homolog subfamily B member 1 I63Y, P25685",-0.236 ± 0.12
6,"DnaJ homolog subfamily B member 1 K21A, P25685",-0.071 ± 0.072
7,"DnaJ homolog subfamily B member 1 K21C, P25685",-0.089 ± 0.071
8,"DnaJ homolog subfamily B member 1 K21D, P25685",-0.25 ± 0.12
9,"DnaJ homolog subfamily B member 1 K21E, P25685",-0.182 ± 0.1
10,"DnaJ homolog subfamily B member 1 K21H, P25685",0.006 ± 0.085
11,"DnaJ homolog subfamily B member 1 K21L, P25685",-0.029 ± 0.051
12,"DnaJ homolog subfamily B member 1 K21P, P25685",-0.822 ± 0.08
13,"DnaJ homolog subfamily B member 1 K21Q, P25685",0.122 ± 0.051
14,"DnaJ homolog subfamily B member 1 K21R, P25685",-0.126 ± 0.059
15,"DnaJ homolog subfamily B member 1 K21S, P25685",-0.097 ± 0.051
16,"DnaJ homolog subfamily B member 1 K21T, P25685",-0.053 ± 0.064
17,"DnaJ homolog subfamily B member 1 K21V, P25685",-0.078 ± 0.061
18,"DnaJ homolog subfamily B member 1 K21W, P25685",-0.152 ± 0.072
19,"DnaJ homolog subfamily B member 1 K21Y, P25685",-0.121 ± 0.088
20,"DnaJ homolog subfamily B member 1 K35A, P25685",-0.359 ± 0.082
21,"DnaJ homolog subfamily B member 1 K35C, P25685",-0.46 ± 0.11
22,"DnaJ homolog subfamily B member 1 K35D, P25685",-0.193 ± 0.13
23,"DnaJ homolog subfamily B member 1 K35E, P25685",-0.285 ± 0.088
24,"DnaJ homolog subfamily B member 1 K35F, P25685",-0.614 ± 0.11
25,"DnaJ homolog subfamily B member 1 K35G, P25685",-0.25 ± 0.083
26,"DnaJ homolog subfamily B member 1 K35H, P25685",-0.724 ± 0.12

row,Substance,abundance fitness
1,"DnaJ homolog subfamily B member 1 K35I, P25685",-0.504 ± 0.086
2,"DnaJ homolog subfamily B member 1 K35L, P25685",-0.55 ± 0.071
3,"DnaJ homolog subfamily B member 1 K35M, P25685",-0.596 ± 0.1
4,"DnaJ homolog subfamily B member 1 K35N, P25685",-0.742 ± 0.13
5,"DnaJ homolog subfamily B member 1 K35P, P25685",-0.365 ± 0.1
6,"DnaJ homolog subfamily B member 1 K35Q, P25685",-0.213 ± 0.092
7,"DnaJ homolog subfamily B member 1 K35R, P25685",0.034 ± 0.092
8,"DnaJ homolog subfamily B member 1 K35S, P25685",-0.438 ± 0.064
9,"DnaJ homolog subfamily B member 1 K35T, P25685",-0.414 ± 0.095
10,"DnaJ homolog subfamily B member 1 K35V, P25685",-0.396 ± 0.1
11,"DnaJ homolog subfamily B member 1 K35W, P25685",-0.963 ± 0.095
12,"DnaJ homolog subfamily B member 1 K35Y, P25685",-0.632 ± 0.13
13,"DnaJ homolog subfamily B member 1 K37C, P25685",-0.267 ± 0.14
14,"DnaJ homolog subfamily B member 1 K37D, P25685",-0.27 ± 0.2
15,"DnaJ homolog subfamily B member 1 K37E, P25685",0.117 ± 0.22
16,"DnaJ homolog subfamily B member 1 K37F, P25685",-0.645 ± 0.17
17,"DnaJ homolog subfamily B member 1 K37G, P25685",-0.319 ± 0.11
18,"DnaJ homolog subfamily B member 1 K37H, P25685",0.05 ± 0.13
19,"DnaJ homolog subfamily B member 1 K37I, P25685",-0.304 ± 0.12
20,"DnaJ homolog subfamily B member 1 K37L, P25685",-0.286 ± 0.061
21,"DnaJ homolog subfamily B member 1 K37M, P25685",-0.41 ± 0.18
22,"DnaJ homolog subfamily B member 1 K37P, P25685",-0.306 ± 0.14
23,"DnaJ homolog subfamily B member 1 K37Q, P25685",-0.2 ± 0.089
24,"DnaJ homolog subfamily B member 1 K37R, P25685",-0.115 ± 0.066
25,"DnaJ homolog subfamily B member 1 K37S, P25685",-0.225 ± 0.065
26,"DnaJ homolog subfamily B member 1 K37T, P25685",-0.228 ± 0.11

row,Substance,abundance fitness
1,"DnaJ homolog subfamily B member 1 K37V, P25685",-0.356 ± 0.083
2,"DnaJ homolog subfamily B member 1 K37Y, P25685",-0.277 ± 0.15
3,"DnaJ homolog subfamily B member 1 K44A, P25685",-0.138 ± 0.092
4,"DnaJ homolog subfamily B member 1 K44C, P25685",-0.208 ± 0.14
5,"DnaJ homolog subfamily B member 1 K44D, P25685",-0.356 ± 0.15
6,"DnaJ homolog subfamily B member 1 K44E, P25685",-0.322 ± 0.077
7,"DnaJ homolog subfamily B member 1 K44F, P25685",-0.298 ± 0.12
8,"DnaJ homolog subfamily B member 1 K44G, P25685",-0.39 ± 0.062
9,"DnaJ homolog subfamily B member 1 K44H, P25685",-0.182 ± 0.16
10,"DnaJ homolog subfamily B member 1 K44I, P25685",-0.279 ± 0.2
11,"DnaJ homolog subfamily B member 1 K44L, P25685",-0.144 ± 0.051
12,"DnaJ homolog subfamily B member 1 K44M, P25685",-0.134 ± 0.068
13,"DnaJ homolog subfamily B member 1 K44N, P25685",-0.204 ± 0.13
14,"DnaJ homolog subfamily B member 1 K44P, P25685",-0.717 ± 0.096
15,"DnaJ homolog subfamily B member 1 K44Q, P25685",-0.192 ± 0.16
16,"DnaJ homolog subfamily B member 1 K44R, P25685",-0.057 ± 0.084
17,"DnaJ homolog subfamily B member 1 K44W, P25685",-0.315 ± 0.11
18,"DnaJ homolog subfamily B member 1 K44Y, P25685",-0.268 ± 0.1
19,"DnaJ homolog subfamily B member 1 K46A, P25685",-0.277 ± 0.35
20,"DnaJ homolog subfamily B member 1 K46G, P25685",-0.016 ± 0.16
21,"DnaJ homolog subfamily B member 1 K46I, P25685",-0.116 ± 0.15
22,"DnaJ homolog subfamily B member 1 K46L, P25685",-0.639 ± 0.43
23,"DnaJ homolog subfamily B member 1 K46T, P25685",-0.451 ± 0.31
24,"DnaJ homolog subfamily B member 1 K46W, P25685",-0.175 ± 0.31
25,"DnaJ homolog subfamily B member 1 K60A, P25685",-0.172 ± 0.093
